Results from PMC4542195 (mBio, 2015).

Target: the molecule itself
Experiment: SEC

B1: VanTG catalytic (C-terminal cytoplasmic) domain, residues 339 to 712, as used in solution (size excl (domain or fragment)
chain: TADTDRAYLEINLNNLEHNVNTLQKAMSPKCELMAVVKAEAYGHGMYEVTTYFEPIGVFYLAVATIDEGIRLRKYGIFSEILILGYTSPSRAKELCKFELTQTLIDYRYLLLLNKQGYDIKAHIKIDTGMHRLGFSTEDKDKILAAFFLKHIKVAGIFTHLCAADSLEEKEVAFTNKPIGSFYKVLDWPKSSGLNIPKVNIQTSYGLWNIQSWNVIYQSGVALYGVLRSTNDKTKLETDLRACSFLKAKVVLIRKIKQGGSVGYSRAFTATRDSLIAILPIGYADGFPRNLSCGNSYVLIGGRQAPIVGKICMDQLAVDVTDIPNVKTGSIATLIGKDGKEEITAPMVAESAESITNELLSRMEHRLNIIRRA
stoichiometry N: 2
